T1: amphyphisin SH3 (AMPH_HUMAN), P49418
T1 chain: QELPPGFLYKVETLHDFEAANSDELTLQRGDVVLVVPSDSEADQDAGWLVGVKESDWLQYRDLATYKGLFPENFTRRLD


How the values were obtained:
[1] = biological target: endophilin SH3 (SH3G2_HUMAN), Q99962; test: SPOT array
[2] = biological target: T1, amphyphisin SH3 (AMPH_HUMAN), P49418; test: SPOT array

| Binder | normalised SPOT signal, Boehringer light units (BLU); mean over the file's lines of this peptide [1] | normalised SPOT signal, Boehringer light units (BLU); mean over the file's lines of this peptide [2] |
| --- | --- | --- |
| AAALPAKPPNLDAA [Q96GI7 75-89] | 73 | 53.7 |
| AALRPPRPARGSRL [Q9BZJ7 202-215] | 23700 | 17100 |
| AKMPLRRPKMKKTP [O95359 373-386] | 200 | 34.8 |
| GEGGPQRPSRSQRR [O75145 4-17] | 1590 | 9950 |
| GEGMFRRPSEGQSL [Q92622 499-512] | 68.7 | 43.2 |
| GEPSPKRPRGRPKG [P52926 41-54] | 59.1 | 23.6 |
| GEQAPARPPRNVQA [Q9UM81 410-423] | 527 | 3470 |
| GEQTFKRPAEDTLY [Q96LK2 45-58] | 15.9 | 15.2 |
| GESRIRRPMNAFMV [Q9H6I2 64-77] | 138 | 46.4 |
| AKREPRRPSWSPRL [Q96BH5 55-68] | 195 | 47.1 |
| GESRLKRPSVLISA [Q13319 50-63] | 0 | 31.9 |
| GEVPPPRPPPPEEK [P18206 866-880] | 1140 | 45.2 |
| GFGVLRRPRPTPGD [Q9H5X0 195-208] | 74.2 | 38.4 |
| GFPAPFRPSRKRSG [O43594 101-114] | 10200 | 9490 |
| GGASPGRPPQPEQP [Q00056 105-119] | 845 | 38.2 |
| GGASPLRPPGAGPQ [Q9H013 877-891] | 80.4 | 63.9 |
| GGDALGRPPRGARS [Q9H3Z7 68-81] | 741 | 2160 |
| GGFKPSRPPRPSRP [O43584 81-95] | 22700 | 18100 |
| GGFLPARPPRAQRH [Q9ULP6 14-28] | 14800 | 18500 |
| GGGSPEKPPSRRRP [O95153 1407-1421] | 499 | 811 |
| AKRHPRRPPRSPGM [Q99973 387-400] | 141 | 1220 |

| Binder | normalised SPOT signal, Boehringer light units (BLU); mean over the file's lines of this peptide [1] | normalised SPOT signal, Boehringer light units (BLU); mean over the file's lines of this peptide [2] |
| --- | --- | --- |
| GGHGPERPKRPGSL [Q9HCE9 771-784] | 1320 | 7740 |
| GGPRPRRPLLLPNL [Q9UQ05 736-749] | 2950 | 40.5 |
| GGPSPSRPPPSLFS [O43823 235-249] | 1350 | 93.5 |
| GGQPPPRPPPGMPH [Q15427 329-343] | 536 | 43.1 |
| GGRTPRRPGLQSGG [O94836 58-71] | 72.8 | 28 |
| GGVRLRRPSVNGEP [Q9H7M7 1141-1154] | 36 | 35.8 |
| GHGEPRRPPSDPLA [Q14349 378-391] | 65.1 | 20.6 |
| GHQEFARPSRGDLA [P51864 32-45] | 52.8 | 1570 |
| GHQEFARPSRGYLA [P13385 32-45] | 214 | 2370 |
| GHRDPRRPRPAQLP [O00456 566-579] | 418 | 12.9 |
| AKTPLSRPVKRNNA [O43525 89-102] | 149 | 52.6 |
| GHRPPGRPRRSPKA [O75866 29-42] | 172 | 1010 |
| GHTLPPKPPSPRGT [Q9HBQ2 154-168] | 4690 | 577 |
| GIKSPSKPPGPNRI [Q9Y474 19-33] | 7270 | 53.5 |
| GINAFARPSKMPYV [P40222 168-181] | 96.7 | 105 |
| GIPPPKRPLKVSQK [Q9P2B8 1668-1681] | 687 | 116 |
| GIPSPRRPMSNLWL [Q14031 953-966] | 647 | 76.5 |
| GIRRPEKPPYSYIA [Q12946 16-30] | 864 | 53.1 |
| GKGRPDRPARRPSP [Q9ULT2 465-478] | 8700 | 2720 |
| GKLKLKRPEQLQEV [O15082 431-444] | 35.2 | 32.6 |
| GKLPPKRPELPPTL [Q9NVN2 625-638] | 205 | 30.7 |

Reference: PMC314469, “Protein Interaction Networks by Proteome Peptide Scanning” (PLoS Biology, 2004)
